B1: MdSOS2 W-box W2 (-149), probe 1 (dsDNA)
DNA 1: TCACAGCCACGTGAATTGAATTGACCAATTTTCCAATTCTGTTTAT
DNA 2: ATAAACAGAATTGGAAAATTGGTCAATTCAATTCACGTGGCTGTGA
B2: MdSOS2 W2 mutant probe (dsDNA)
DNA 1: B1 DNA 1 with G23T, A24C
DNA 2: B1 DNA 2 with T23G, C24A
B3: MdSOS3 W-box probe 1 (W4, -127) (dsDNA)
DNA 1: TAGTGAAGCACATCCGCTCTAGTCAAAGCAGCTACGCTCACGCGTG
DNA 2: CACGCGTGAGCGTAGCTGCTTTGACTAGAGCGGATGTGCTTCACTA
B4: MdSOS2 W-box W3 (-303), probe 2 (dsDNA)
DNA 1: TATGAAAACTGGAACTTGGGTTGACTGAATTTACTTCTAATTTCAT
DNA 2: ATGAAATTAGAAGTAAATTCAGTCAACCCAAGTTCCAGTTTTCATA
B5: MdSOS2 W3 mutant probe (dsDNA)
DNA 1: B4 DNA 1 with G23T, A24C
DNA 2: B4 DNA 2 with T23G, C24A
B6: MdNHX1 W-box W1 (-1255) (dsDNA)
DNA 1: ATCATATTTTTACACTAAAAAGTCAATCTTGGTACTATTTATCTTA
DNA 2: TAAGATAAATAGTACCAAGATTGACTTTTTAGTGTAAAAATATGAT
B7: MdNHX1 W1 mutant probe (dsDNA)
DNA 1: B6 DNA 1 with T23G, C24A
DNA 2: B6 DNA 2 with G23T, A24C

Numbering of substitutions follows the chain as printed.

The data set deals with MdWRKY9 (Malus domestica (apple)?, UniProt D9ZJG3 1-520). Kind of data set: EMSA; EMSA buffer, salt, pH and temperature not given (refers to earlier method, ref. 35); GST added to equalize protein in JAZ assays. As to conditions: protein: recombinant; tags: His (pET32a(+)); label: 3' biotin; blunt. On the technique in general: In EMSA bound probe runs differently from free probe, usually more slowly.
Sequence of MdWRKY9 (D9ZJG3 entry or part of it): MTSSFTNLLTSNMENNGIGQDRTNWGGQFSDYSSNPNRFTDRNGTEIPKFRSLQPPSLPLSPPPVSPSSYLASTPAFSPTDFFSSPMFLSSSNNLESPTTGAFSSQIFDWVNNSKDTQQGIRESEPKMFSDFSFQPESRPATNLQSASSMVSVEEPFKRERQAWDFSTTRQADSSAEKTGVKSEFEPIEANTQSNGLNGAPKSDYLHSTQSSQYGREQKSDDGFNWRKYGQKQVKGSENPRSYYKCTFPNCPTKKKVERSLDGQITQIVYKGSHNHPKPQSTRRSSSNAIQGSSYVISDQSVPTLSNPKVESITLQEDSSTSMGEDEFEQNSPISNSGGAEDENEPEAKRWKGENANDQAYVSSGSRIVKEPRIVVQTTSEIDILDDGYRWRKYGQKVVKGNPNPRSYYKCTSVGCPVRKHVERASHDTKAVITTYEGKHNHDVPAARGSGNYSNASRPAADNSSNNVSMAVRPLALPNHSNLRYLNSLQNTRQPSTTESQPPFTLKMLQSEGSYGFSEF
With B1, the binding result is given as “binds”.
Next, B2: “no binding”; B3: “no binding”; B4: “binds”.
With B5 the entry was “no binding”; with B6, “binds”.
With B7, the binding result was “no binding”.

Source of the values: PMC12038257, “The transcription factor MdWRKY9 is involved in jasmonic acid-mediated salt stress tolerance in apple”.
